Experimental data reported in IntAct's records for PubMed 23892082.

B1: TIP41-like protein (Homo sapiens), O75663 (parent)
chain: MMIHGFQSSHRDFCFGPWKLTASKTHIMKSADVEKLADELHMPSLPEMMFGDNVLRIQHGSGFGIEFNATDALRCVNNYQGMLKVACAEEWQESRTEGEHSKEVIKPYDWTYTTDYKGTLLGESLKLKVVPTTDHIDTEKLKAREQIKFFEEVLLFEDELHDHGVSSLSVKIRVMPSSFFLLLRFFLRIDGVLIRMNDTRLYHEADKTYMLREYTSRESKISSLMHVPPSLFTEPNEISQYLPIKEAVCEKLIFPERIDPNPADSQKSTQVE

Variants of: B1
Details: with pp2aa_rat Ppp2ca

effect of a mutation on the interaction | Variant
disrupting interaction | D71L
